Experiments:
[1] = system: MC-38 OVA; test: Low dose cisplatin anti-tumor activity in MC-38 OVA mice; assay type: in vivo; details: cisplatin 5 mg/kg (approximately 60 mg/m^2 human dose)
Protocol: FIGS. 1A-1C relate to Example 1.
A low dose treatment of cisplatin, 5 mg/kg (equivalent to approximately 60 mg/m^2 human dose) was tested for anti-tumor activity in MC-38 OVA mice.

[2] = system: human T-cell; details: in vitro; cited from earlier work
[3] = system: xenograft model; details: via a T-cell dependent mechanism; cited from earlier work

Molecule | anti-tumor activity (tumor growth inhibition) [1] | PD-L1-mediated suppression of human T-cell activation [2] | tumor growth in a xenograft model [3]
N.N.[Cl][Pt][Cl] [cisplatin] | produces most tumor growth inhibition | – | –
MEDI4736: anti-PD-L1 antibody selective for a PD-L1 polypeptide; SEQ ID NOs: 3-10 (antibody, V domains shown, MEDI4736 VH; Sequence 72 from PCT/US2010/058007; MEDI4736 VL; Sequence 77 from PCT/US2010/058007) VH: EVQLVESGGGLVQPGGSLRLSCAASGFTFSRYWMSWVRQAPGKGLEWVANIKQDGSEKYYVDSVKGRFTISRDNAKNSLYLQMNSLRAEDTAVYYCAREGGWFGELAFDYWGQGTLVTVSS VL: EIVLTQSPGTLSLSPGERATLSCRASQRVSSSYLAWYQQKPGQAPRLLIYDASSRATGIPDRFSGSGSGTDFTLTISRLEPEDFAVYYCQQYGSLPWTFGQGTKVEIK | – | can relieve PD-L1-mediated suppression of human T-cell activation in vitro | inhibit tumor growth in a xenograft model

Source: US20220354880A1, “COMBINATION TREATMENT FOR CANCER” (AstraZeneca AB, priority 2019, published 2022)
